Measurements from US20060110401A1, “Mixture of peptides from c and ns3 proteins of the hepatitis c virus and applications thereof” (priority 2002, published 2006).
No end group written: not given here.

How the values were obtained:
[1] = target: HLA-DR3 (DRB1*0301) (human); assay: competition binding; conditions: chains peptide; modification not given
[2] = target: HLA-DR4 (DRB1*0401) (human); assay: competition binding; conditions: chains peptide; modification not given
[3] = target: HLA-DRB4 (DRB4*0101) (human); assay: competition binding; conditions: chains peptide; modification not given
[4] = target: HLA-DRB5 (DRB5*0101) (human); assay: competition binding; conditions: chains peptide; modification not given
[5] = target: HLA-DR1 (DRB1*0101) (human); assay: competition binding; conditions: chains peptide; modification not given
[6] = target: HLA-DP402 (DPB1*0402) (human), P20036; assay: competition binding; conditions: chains peptide; modification not given
[7] = target: T1, HLA-DP401 (DPB1*0401) (human), P20036; assay: competition binding; conditions: chains peptide; modification not given
T1 chain 1: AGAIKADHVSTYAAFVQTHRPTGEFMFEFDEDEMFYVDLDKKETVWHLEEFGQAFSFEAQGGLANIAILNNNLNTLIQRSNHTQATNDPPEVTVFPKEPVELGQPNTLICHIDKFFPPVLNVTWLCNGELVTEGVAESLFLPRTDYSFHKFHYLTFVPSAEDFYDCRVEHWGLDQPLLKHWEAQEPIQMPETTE
T1 chain 2: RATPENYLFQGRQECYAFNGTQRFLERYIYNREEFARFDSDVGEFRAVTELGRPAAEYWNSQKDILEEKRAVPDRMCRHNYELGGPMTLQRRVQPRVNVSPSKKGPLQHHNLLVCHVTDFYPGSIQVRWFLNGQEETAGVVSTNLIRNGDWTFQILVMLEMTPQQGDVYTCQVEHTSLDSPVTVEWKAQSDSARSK

[8] = target: HLA-DR15 (DRB1*1501) (human); assay: competition binding; conditions: chains peptide; modification not given
[9] = target: HLA-DRB3 (DRB3*0101) (human); assay: competition binding; conditions: chains peptide; modification not given
[10] = target: HLA-DR13 (DRB1*1301) (human); assay: competition binding; conditions: chains peptide; modification not given
[11] = target: HLA-DR11 (DRB1*1101) (human); assay: competition binding; conditions: chains peptide; modification not given
[12] = target: HLA-DR7 (DRB1*0701) (human); assay: competition binding; conditions: chains peptide; modification not given
[13] = target: T2, HLA-DR1 (DRB1*0101) (human); assay: competition ELISA, purified HLA II; tracer biotinylated HA 306-318
T2 chain 1: not shown
T2 chain 2: not shown

[14] = target: T3, HLA-DR13 (DRB1*1301) (human); assay: competition ELISA, purified HLA II; unlabeled peptide against its own biotinylated tracer
T3 chain 1: not shown
T3 chain 2: not shown

[15] = target: T4, HLA-DR7 (DRB1*0701) (human); assay: competition ELISA, purified HLA II; tracer biotinylated YKL
T4 chain 1: not shown
T4 chain 2: not shown

[16] = target: T5, HLA-DRB4 (DRB4*0101) (human); assay: competition ELISA, purified HLA II; tracer biotinylated E2/E168
T5 chain 1: not shown
T5 chain 2: not shown

[17] = target: T6, HLA-DR4 (DRB1*0401) (human); assay: competition ELISA, purified HLA II; tracer biotinylated HA 306-318
T6 chain 1: not shown
T6 chain 2: not shown

[18] = target: T7, HLA-DRB5 (DRB5*0101) (human); assay: as above
T7 chain 1: not shown
T7 chain 2: not shown

[19] = target: T8, HLA-DR11 (DRB1*1101) (human); assay: as above
T8 chain 1: not shown
T8 chain 2: not shown

[20] = target: T9, HLA-DR15 (DRB1*1501) (human); assay: competition ELISA, purified HLA II; tracer biotinylated A3 152-166
T9 chain 1: not shown
T9 chain 2: not shown

[21] = target: T10, HLA-DR3 (DRB1*0301) (human); assay: competition ELISA, purified HLA II; tracer biotinylated MT 2-16
T10 chain 1: not shown
T10 chain 2: not shown

KPGIYRFVAPGERPSGMFD [27N 1495-1513] was tested, and the IC50 [1] was > 100000 nM, the IC50 [2] was 1250 nM and the IC50 [3] was 138 nM. The IC50 [4] was 2 nM, the IC50 [5] was 163 nM and the IC50 [6] was > 100000 nM. The IC50 [7] was > 100000 nM, the IC50 [8] was 150 nM and the IC50 [9] was 40000 nM. The IC50 [10] was > 100000 nM.

AQGYKVLVLNPSVAATLGFGAYMSKAHGID [18N 1246-1275] gave an IC50 [2] of 5 nM, an IC50 [4] of 1250 nM and an IC50 [5] of 1 nM. For the same binder, the IC50 [7] was > 100000 nM, the IC50 [8] was 58 nM and the IC50 [9] was > 30000 nM. For the same binder, the IC50 [10] was 900 nM and the IC50 [11] was 40 nM.

In the case of PQDVKFPGGGQIVGGVYLLPRRGPRLGVR [1C 19-47], the IC50 [1] is reported as > 100000 nM, the IC50 [2] is reported as 70000 nM and the IC50 [3] is reported as 6000 nM. The IC50 [4] was 9 nM, the IC50 [5] was 350 nM and the IC50 [9] was > 100000 nM. It also gave an IC50 [11] of 58 nM.

With VGGVYLLPRRGPRLGVRATRKTSERSQ [2C 31-57] the IC50 [6] was > 100000 nM and the IC50 [7] was > 100000 nM.

SSDLYLVTRHADVIPVRRRGDSRGSLL [13N 1127-1153] was tested, and the IC50 [1] was > 100000 nM, the IC50 [12] was 17 nM and the IC50 [2] was 3500 nM. For the same binder, the IC50 [4] was 500 nM, the IC50 [5] was 700 nM and the IC50 [7] was > 100000 nM. For the same binder, the IC50 [9] was > 10000 nM, the IC50 [10] was 300 nM and the IC50 [11] was 17 nM.

In the case of GREILLGPADGMVSKGWRLLAPITAYAQQTR [8N 1007-1037], the IC50 [13] is reported as 2 nM, the IC50 [1] is reported as 200 nM and the IC50 [2] is reported as 10 nM. For the same binder, the IC50 [3] was 60 nM, the IC50 [8] was 30 nM and the IC50 [10] was 1250 nM. The IC50 [11] was 1 nM.

For KNQVEGEVQIVSTAAQTFLAT [10N 1052-1072], the IC50 [12] was 7 nM, the IC50 [3] was 400 nM and the IC50 [5] was 400 nM. The IC50 [9] was 10000 nM and the IC50 [11] was 200 nM.

AAKLVALGINAVAYYRGLDVSVIPTSGDV [24N 1404-1432] was tested, and the IC50 [6] was 7040 nM and the IC50 [7] was 32700 nM.

In the case of DPNIRTGVRTITTGSPITYSTYGKFLADGG [19N 1275-1304], the IC50 [1] is reported as > 100000 nM, the IC50 [2] is reported as 500 nM and the IC50 [3] is reported as 3500 nM. The IC50 [5] was 150 nM, the IC50 [8] was 550 nM and the IC50 [9] was 150 nM. For the same binder, the IC50 [10] was > 100000 nM.

IEEVALSTTGEIPFYGKAIPLEVIKG [22N 1362-1387] was tested, and the IC50 [5] was 33 nM.

RSPVFTDNSSPPVVPQSFQVAHLHAPTGSGKSTK [17N 1206-1239] gave an IC50 [2] of 425 nM, an IC50 [4] of 350 nM and an IC50 [8] of 10000 nM. The IC50 [10] was > 100000 nM and the IC50 [11] was 550 nM.

GHAVGIFRAAVCTRGVAKAVDF [15N 1174-1195] gave an IC50 [7] of 17800 nM.

Work on TERVRLVTRHIYNREE (not fully specified) [B1 21-36 (nonbiotinylated)] yielded an IC50 [14] of 330 nM.

Work on TRGLLGCIITSLTGRDKNQV (modifications not checked) [9N 1036-1055, P26664 1036-1055] yielded an IC50 [15] of 2600 nM, an IC50 [16] of 1000 nM and an IC50 [13] of 51 nM. It also gave an IC50 [17] of 950 nM, an IC50 [18] of 53 nM and an IC50 [19] of 700 nM. It also gave an IC50 [20] of 5500 nM.

GCIITSLTGRDKNQV (modifications not checked) [9N 1041-1055] showed an IC50 [21] of 62500 nM, an IC50 [16] of 65000 nM and an IC50 [13] of 190 nM. For the same binder, the IC50 [17] was 2900 nM, the IC50 [18] was 11 nM and the IC50 [19] was 2600 nM. It also gave an IC50 [20] of 525 nM.

DAHFLSQTKQSGENL (modifications not checked) [29N 1569-1583] was tested, and the IC50 [15] was 3000 nM, the IC50 [13] was 950 nM and the IC50 [17] was 10500 nM. For the same binder, the IC50 [18] was 21000 nM, the IC50 [19] was 22 nM and the IC50 [20] was 2800 nM.

Work on WAGWLLSPRGSRPSW (modifications not checked) [3C 93-107] yielded an IC50 [13] of 6330 nM.
